Patent US20090074762A1 (PDL BIOPHARMA, published 2009)

T1: TweakR on cells (TweakR-expressing cells, TweakR transfectant cell line, A375 melanoma cells, tumor tissue) (human, UniProt Q9NP84 28-129)
T1 sequence: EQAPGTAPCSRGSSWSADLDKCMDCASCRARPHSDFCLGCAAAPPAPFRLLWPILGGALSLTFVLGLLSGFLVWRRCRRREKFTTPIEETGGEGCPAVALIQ

T2: soluble form of the extracellular domain of human TweakR (human, UniProt Q9NP84 28-80)
T2 construct: also called soluble TweakR extracellular domain
T2 sequence: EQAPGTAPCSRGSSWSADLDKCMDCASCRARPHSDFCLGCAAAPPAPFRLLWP

T3: mouse TweakR (mouse, UniProt Q9CR75 28-80, limits assumed)
T3 construct: also called mouse TweakR protein
T3 sequence (looked up): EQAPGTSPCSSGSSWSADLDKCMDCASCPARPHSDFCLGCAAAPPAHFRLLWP


What was measured:
[1] = target: T1, TweakR on cells (TweakR-expressing …); assay: cell-based or functional assay
[2] = target: T2, soluble form of the extracellular …; assay: Biacore; antibody captured by immobilized anti-Fc, soluble TweakR extracellular domain injected
Protocol: The relative binding affinities of various mouse and humanized anti-TweakR antibodies were assessed in a Biacore assay using a soluble form of the extracellular domain of human TweakR. Briefly, goat anti-mouse Fc antibody or goat anti-human Fc was first immobilized to the biosensor surface followed by capture of antibody on the test surface. Subsequently, the soluble form of the extracellular domain of human TweakR was injected to measure binding to, and dissociation from, antibody.

human TweakR (R56P) = human TweakR (R56P) (human, UniProt Q9NP84 28-80, limits assumed); assay: binding assay read as OD650, single bar per antibody and target; format and antibody concentration not given
mouse TweakR = target: T3, mouse TweakR; assay: as above

Row | Binder | agonist activity (IL-8 release assay) [1] [%] | Kd [2] [pM] | binding result (human TweakR (R56P)) | binding result (mouse TweakR)
1 | murine anti-TweakR antibody ITEM-1 (antibody, V domains shown) VH: EVKLEESGGGLVQPGGSMKLSCVASGFSFSNYWMNWVRQSPEKGLEWVAEIRLKSNNYATHYAESVKGRFTISRHDSKSSVYLQMNNLRAEDTGIYYCTRAYADYFDYWGQGTTLTVSS VL: DIVLTQSPASLVVSLGQRATISCRASQSVSTSTYSYMHWYQQKPGQPPKILIKYASNLESGVPARFSGSGSGTDFTLNIHPVEEEDTATYYCQHSWEIPYTFGGGTKLEIKR | ~25 | – | – | –
2 | murine anti-TweakR antibody ITEM-3 (antibody, V domains shown) VH: EVKLEESGGGLVQPGGSMKLSCVVSGLTFSRYWMSWVRQSPEKGLEWVAEIRVKSDNYATTHYAESVKGKFTVSRDDSKSRLYLQMSSLRPEDTGIYYCIGYYADAMDYWGQGTSVTVSS VL: DIVLTQSPASLVVSLGQRATISCRASQSVSTSSYSYMHWYQQKPGQPPKLLIKYASKLDSGVPARFSGSGSGTDFTLNIHPVEEEDTATYYCQHSWEIPWTFGGGTKMEIKR | ~37 | – | – | –
3 | murine anti-TweakR antibody 136.1 (antibody, V domains shown, Mouse monoclonal antibody) VH: EVKLEESGGGLVQPGGSMKLSCVASGFTFNNYWMSWVRQSPEKGLEWLAEIRLKSDNYATHYAESVKGKFTISRDDSKSRLYLQMNNLRAENTGIYYCTGGFADYFDYWGQGTTLTVSS VL: DIVLTQSPASLTVSLGQRATISCRASQSVSTSSYSYMQWYQQRPGQPPKLLIKYATNLDSGVPARFSGSGSGTDFTLNIHPVEEEDAATYYCQHSWEIPYTFGGGTKLEIKR | ~278 | 680 | – | –
4 | murine anti-TweakR antibody 18.3.3 (antibody, V domains shown, Mouse monoclonal antibody) VH: EVKLGESGGGLVQPGGSMKLSCVASGFPFTKYWMNWVRQSPEKGLEWVAEIRLKSDNYATHYAESAKGRFTISRDDSRSSVYLQMNNLRAEDTAIYYCSPTYADTMDYWGQGTSVTVSS VL: DIVLTQSPASLAVSLGQRATISCKASQSVSTSTYSYMQWYQQRPGQSPKLLIKYASKLDSGVPARFSGSGSGTDFTLNIHPVEEEDTATYYCQHSWELPYTFGGGTRLEIKR | ~14 | 230 | binds | binds
5 | humanized anti-TweakR antibody PDL192 (antibody, human IgG1, V domains shown) VH: EVQLVESGGGLVQPGGSLRLSCAASGFTFSSYWMSWVRQAPGKGLEWVAEIRLKSDNYATHYAESVKGRFTISRDDSKNSLYLQMNSLRAEDTAVYYCTGYYADAMDYWGQGTLVTVSS VL: DIQMTQSPSSLSASVGDRVTITCRASQSVSTSSYSYMHWYQQKPGKAPKLLIKYASNLESGVPSRFSGSGSGTDFTLTISSLQPEDFATYYCQHSWEIPYTFGGGTKVEIK | ~25 | – | – | –
6 | murine anti-TweakR antibody 19.2.1 (antibody, mouse IgG2a, V domains shown) VH: EVKLEESGGGLVQPGGSMKLSCVASGFTFSSYWMSWVRQSPEKGLEWVAEIRLKSDNYATHYAESVKGKFTISRDDSKSRLYLQMNSLRAEDTGIYYCTGYYADAMDYWGQGTSVTVSS VL: DIVLTQSPASLAVSLGQRATISCRASQSVSTSSYSYMHWYQQKPGQPPKLLIKYASNLESGVPARFSGSGSGTDFTLNIHPVEEEDTATYYCQHSWEIPYTFGGGTKLEIK | ~39 | 7120 | – | –
7 | humanized anti-TweakR antibody PDL400 (antibody, V domains shown, constant regions not expressly stated) VH: QVQLVQSGAEVKKPGASVKISCKVSGYTFTDFIIAWVKQAPGKGLEWIGEIYPGTGRTYYSEKFRGKATLTADKSTSTAYMELSSLRSEDTAVYYCARRTIYYDYDGDYWGQGTTVTVSS VL: DIVMTQSPLSLPVTPGEPASISCRSSKSLLHSNGITYLYWYLQKPGQSPQLLIYQMSNLASGVPDRFSSSGSGTDFTLKISRVEAEDVGVYYCAHNLELPWTFGGGTKVEIK | ~8 | 580 | – | –
